Laboratory results reported in IntAct's records for PubMed 16712842.

B1: UV excision repair protein RAD23 homolog B (Homo sapiens), P54727 (parent)
chain: MQVTLKTLQQQTFKIDIDPEETVKALKEKIESEKGKDAFPVAGQKLIYAGKILNDDTALKEYKIDEKNFVVVMVTKPKAVSTPAPATTQQSAPASTTAVTSSTTTTVAQAPTPVPALAPTSTPASITPASATASSEPAPASAAKQEKPAEKPAETPVATSPTATDSTSGDSSRSNLFEDATSALVTGQSYENMVTEIMSMGYEREQVIAALRASFNNPDRAVEYLLMGIPGDRESQAVVDPPQAASTGAPQSSAVAAAAATTTATTTTTSSGGHPLEFLRNQPQFQQMRQIIQQNPSLLPALLQQIGRENPQLLQQISQHQEHFIQMLNEPVQEAGGQGGGGGGGSGGIAEAGSGHMNYIQVTPQEKEAIERLKALGFPEGLVIQAYFACEKNENLAANFLLQQNFDED

Variants of: B1
Conditions: with ef1a1_human EEF1A1, P68104
ef1a1_human EEF1A1, P68104, sequence (P68104 whole entry): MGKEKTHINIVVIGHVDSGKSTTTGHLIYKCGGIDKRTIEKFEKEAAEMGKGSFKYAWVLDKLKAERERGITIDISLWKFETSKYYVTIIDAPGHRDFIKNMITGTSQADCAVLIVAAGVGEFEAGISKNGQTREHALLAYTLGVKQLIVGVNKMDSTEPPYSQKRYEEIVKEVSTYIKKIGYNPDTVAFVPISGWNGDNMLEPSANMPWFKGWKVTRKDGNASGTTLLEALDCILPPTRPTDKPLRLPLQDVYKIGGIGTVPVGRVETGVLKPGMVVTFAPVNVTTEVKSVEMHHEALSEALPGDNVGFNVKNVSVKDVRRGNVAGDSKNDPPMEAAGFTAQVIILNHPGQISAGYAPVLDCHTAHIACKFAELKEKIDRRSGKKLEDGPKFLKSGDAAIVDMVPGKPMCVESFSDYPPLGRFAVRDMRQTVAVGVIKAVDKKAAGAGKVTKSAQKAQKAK

| effect of a mutation on the interaction | Variant |
| --- | --- |
| disrupting interaction | K6A |

Variants of: B1
Conditions: with uba3_human UBA3, Q8TBC4
uba3_human UBA3, Q8TBC4, sequence (Q8TBC4 whole entry): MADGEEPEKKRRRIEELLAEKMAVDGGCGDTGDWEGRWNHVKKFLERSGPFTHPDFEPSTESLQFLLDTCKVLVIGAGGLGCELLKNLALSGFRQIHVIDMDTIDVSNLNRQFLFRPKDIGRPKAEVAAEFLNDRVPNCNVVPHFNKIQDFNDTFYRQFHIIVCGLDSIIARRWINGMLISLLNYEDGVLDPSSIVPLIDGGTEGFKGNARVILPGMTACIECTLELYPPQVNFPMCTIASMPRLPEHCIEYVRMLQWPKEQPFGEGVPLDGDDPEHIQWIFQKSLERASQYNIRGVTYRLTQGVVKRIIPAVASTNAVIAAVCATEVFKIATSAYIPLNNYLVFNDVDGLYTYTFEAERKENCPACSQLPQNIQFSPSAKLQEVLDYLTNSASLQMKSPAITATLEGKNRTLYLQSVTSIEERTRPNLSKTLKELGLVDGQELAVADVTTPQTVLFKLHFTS

| effect of a mutation on the interaction | Variant |
| --- | --- |
| increasing interaction | K6A |
